{"source": "paper PMC3338718", "about": "“Characterization of a Novel ArsR-Like Regulator Encoded by Rv2034 in Mycobacterium tuberculosis”", "molecules": {"B1": {"name": "Rv2034BSwt (dsDNA)", "DNA 1": "GGAAGAATATCCGTAAGTCTAAACTTACGGTTCGTGTCCA", "DNA 2": "TGGACACGAACCGTAAGTTTAGACTTACGGATATTCTTCC"}}, "key": {"[1]": {"target": "T1, Rv2034ΔN28 del1-28 (Mycobacterium tuberculosis) (UniProt O53478)", "T1 sequence": "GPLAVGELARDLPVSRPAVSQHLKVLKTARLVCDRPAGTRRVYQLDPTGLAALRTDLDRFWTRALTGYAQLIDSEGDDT", "assay": "EMSA"}, "[2]": {"target": "T2, Rv2034 (ArsR family regulator) (Mycobacterium tuberculosis) (UniProt O53478)", "T2 sequence": "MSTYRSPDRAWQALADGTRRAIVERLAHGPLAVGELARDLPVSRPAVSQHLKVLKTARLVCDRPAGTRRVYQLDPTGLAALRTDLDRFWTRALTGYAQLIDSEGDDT", "assay": "EMSA"}, "[3]": {"target": "T2, Rv2034 (ArsR family regulator) (Mycobacterium tuberculosis)", "assay": "competition"}, "[4]": {"target": "T2, Rv2034 (ArsR family regulator) (Mycobacterium tuberculosis)", "assay": "DNase I footprinting"}, "[5]": {"target": "T3, Rv2034 (ArsR family regulator) (Mycobacterium tuberculosis, UniProt O53478 1-107)", "T3 sequence": "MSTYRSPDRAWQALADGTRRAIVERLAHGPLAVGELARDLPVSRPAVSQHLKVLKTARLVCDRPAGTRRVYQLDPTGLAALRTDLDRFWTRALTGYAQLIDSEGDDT", "assay": "EMSA; 0.1-1.2 uM protein", "conditions": "protein: recombinant; tags: N-terminal His6 (pET28a); chain copies: 2; label: 5' label (32P or FITC); blunt"}}}
{"molecule": "AATTTCTAGAGCCTGCGGCAAGCACGTCGGTTCCATAGCGATCCAGCACGCCGCAATACTAGGGAGCCTCTCTGCCGGTCATCGCCGCGACGCGCCGCATGGGTTCTCGGAAAATGCTTGTACCAGTCGACTTTCCGGCGGGCCAACGTCGCCAACCGATACTCGGCTCCAACGCCATGGGTGACGGGATGCCCGGATCACGTGTCACACCACCCGCGCACCCTTGCGGAAGAATATCCGTAAGTCTAAACTTACGGTTCGAATTCCCGG (double strand) [Rv2034p promoter]", "values": [{"measurement": "binding", "setting": "[1]", "result": "no binding"}, {"measurement": "binding", "setting": "[2]", "result": "binds"}, {"measurement": "binding", "setting": "[3]", "result": "binds"}]}
{"molecule": "GATAGAATTCTACCAGTCGACTTTCCGGCGGGCCAACGTCGCCAACCGATACTCGGCTCCAACGCCATGGGTGACGGGATGCCCGGATCACGTGTCACACCACCCGCGCACCCTTGCGGAAGAATATCCGTAAGTCTAAACTTACGGTTCGTGTCCACTTACAGATCACCGGATCGCGCTTGGCAGGCGCTGGCGGACGGCACTCGCCGGGCCATCGTGGAGCGGCTGGCGCATCTAGATGTC (double strand) [Rv2034p footprint fragment]", "values": [{"measurement": "binding", "setting": "[4]", "result": "binds"}]}
{"molecule": "ACTGTCTAGAGTTGGCGCATGTACACCTGAGCCGTCGGCTCGCCCACTGGACCCGGCTCTACCCCGAGGTGCGGGTGGATCGGGCCATCGCCGGCGGCAGTGCGTGCCGTCATCTGGCCGCCAACGCAAAGCCGGGTCAGCTGTTCGTCGCGGACTCACACTCCGCGCACGAATTGTGCGGTGCATACCAGCCCGGATGCGCCGTACTTACGGTACGCAGTGCCAACTTGTAGGGAGCGGATCTTGGGAGTGGTGCCCTGGAATTCATCT (double strand) [Rv3133cp (dosR promoter)]", "values": [{"measurement": "binding", "setting": "[2]", "result": "binds"}]}
{"molecule": "B1", "values": [{"measurement": "binding result", "setting": "[5]", "result": "binds"}]}
